B1: USP39 (parent)
chain: TLSEAYIQIWKRRDNDETNQQGA
B2: HDAC6 (parent)
chain: DLMETTQYMNEGELRVLADTYDSV

Variants of: B1
Assay: protein stability index of a GFP-peptide fusion (GPS, HEK-293T) (PSI 1-6); higher = more stable
Settings: c terminus: native
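Further: lentivirally expressed fusions sorted by FACS into six bins by GFP to DsRed ratio, PSI derived from sequencing read proportions per bin multiplied by bin number.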

Protein stability index of substitutions, site by site:
T18: A 3.05; N 2.41; S 1.89; V 2.56; H 3.19; D 1.95; I 3.17; P 1.87; Y 2.51; G 2.57; M 1.43; Q 1.61; L 2.06; C 1.69; E 2.56; F 1.73; R 2.54; W 2.11; K 3.63
Q21: C 1.76; M 1.8; N 3.81; R 1.53; I 2.66; D 2.74; K 3.59; F 1.79; P 4.25; G 2.52; A 2.96; V 1.96; Y 2.43; L 2.09; E 2.87; W 1.84; T 3.59; H 2.05; S 2.96
E17: R 1.63; H 1.6; V 1.5; W 2.35; A 1.8; Y 1.87; I 1.93; D 2.79; F 1.99; P 2.4; Q 1.55; C 2.33; N 1.77; K 1.72; T 1.9; L 1.71; G 2.66
G22: E 4.79; Q 4.13; V 3.41; A 3.77; S 3.82; C 2.83; F 3; N 4.12; I 3.35; W 2.45; R 2.83; K 4.09; Y 3.04; P 3.05; D 3.84; M 3.1; H 3.63; L 3.26; T 3.66
A23: V 4.23; W 2.94; Y 3.58; K 4.54; E 4.22; F 3.71; N 4.51; R 2.59; H 4.18; T 3.73; I 3.76; S 3.94; L 3.89; Q 4.5; C 3.53; M 4.35; P 4.07; D 4.15
Q20: P 1; V 1.73; D 2.37; R 2.35; C 2.38; E 2.15; H 1.58; T 3.77; S 4.26; K 2.14; L 2.02; G 2.68; Y 2.4; A 2.51; W 2.17; N 3.41; I 1.74; M 3.46; F 2.02
N19: P 1.45; A 2.38; Q 2.85; F 2.99; M 2.06; W 2.61; D 4.38; H 2.75; T 3.51; R 2.37; L 1.79; E 3.9; V 2.32; K 2.77; C 2.1; Y 3.5; G 3.69; S 2.9
D16: N 2.67; M 2.93; Y 2.9; S 2.22; K 2.32; W 3.13; L 2.61; Q 2.22; P 1.29; T 1.98; R 1.66; I 1.95

Variants of: B2
Assay: as above
Settings: c terminus: a fixed tail appended

Protein stability index of substitutions, site by site:
D1: W 1.55; H 1.53; L 2.05; I 3.02; F 2.46; T 2.27; K 2.28; A 1.77; G 3.06; N 2.18; M 1.54; Q 2.25; C 2.48; E 2.22; R 3.01; V 1.25; Y 2.04; P 4.29
L2: G 3.22; I 1.55; A 2.33; D 5.2; H 5.04; E 4.57; F 3.49; C 3.12
